# B1: dimeric LacI (lac repressor, residues 1-331, without the tetramerization domain) (domain or fragment, E. coli, UniProt P03023 1-331, looked up)
# chain: MKPVTLYDVAEYAGVSYQTVSRVVNQASHVSAKTREKVEAAMAELNYIPNRVAQQLAGKQSLLIGVATSSLALHAPSQIVAAIKSRADQLGASVVVSMVERSGVEACKAAVHNLLAQRVSGLIINYPLDDQDAIAVEAACTNVPALFLDVSDQTPINSIIFSHEDGTRLGVEHLVALGHQQIALLAGPLSSVSARLRLAGWHKYLTRNQIQPIAEREGDWSAMSGFQQTMQMLNEGIVPTAMLVANDQMALGAMRAITESGLRVGADISVVGYDDTEDSSCYIPPLTTIKQDFRLLGQTSVDRLLQLSQGQAVKGNQLLPVSLVKRKTTLA
# notes: E. coli lac repressor (LacI), residues 1-331, tetramerization domain truncated; vector pET9a-6×His-LacI(1-331); His tag removed with TEV protease; also called LacI(1-331); apo-LacI; source: E. coli BL21(AI) ΔlacI-ZYA, purified (Ni-NTA, TEV cleavage, second Ni-NTA flowthrough)
# B2: Osyn (perfectly symmetric synthetic operator) (dsDNA)
# DNA 1: AGTAGTCTAGAATTGTGAGCGCTCACAATTCTAGAGTAGT
# DNA 2: ACTACTCTAGAATTGTGAGCGCTCACAATTCTAGACTACT
# B3: Olac (LacO1 natural operator, BLI) (dsDNA)
# DNA 1: AGTAGTGGAATTGTGAGCGGATAACAATTGACATTGTGAGCGGATAACAAGATACTGAGCACATCAGC
# DNA 2: GCTGATGTGCTCAGTATCTTGTTATCCGCTCACAATGTCAATTGTTATCCGCTCACAATTCCACTACT
# Columns and labels:
# LacI (Escherichia coli) = LacI (Escherichia coli) (UniProt P03023); conditions: cited from earlier work
# [1] = target: the molecule itself; test: SEC; purified LacI(1-331) after tag removal, buffer and concentration not given
# [2] = target: LacI dimeric (lac repressor, tetramerization domain removed) (Escherichia coli, UniProt P03023 1-331); test: BLI; no IPTG; BLI: PBS with 0.2% BSA, 0.05% Tween-20, pH 8.0, room temperature, LacI 0-40 nM, global 1:1 kinetic fit; HDX/MS: 50 mM MOPS, 200 mM NaCl, 0.5 mM TCEP, pH 7.0, equilibrated at 4 C; conditions: protein: recombinant; 6xHis removed with TEV protease; chain copies: 2; label: 5'-biotin on forward strand; blunt
Molecule,Kd [2] [nM],other results
LacI (from UniProt P03023),–,Kd (LacI (Escherichia coli)): 80 nM
B1,–,binding result [1]: binds
B2,1.1,–
B3,9.5,–
